Target: T1, C1q (human, UniProt P02745 23-245; P02746 28-253; P02747 29-245)
T1 construct: also called human C1q; purified C1q; source: bought: Calbiochem (purified); also endogenous, human serum; copies: + +
Assay: ELISA; C1q binding assay: ES-62, PCh-BSA or CWPS coated to give equivalent CRP binding; CRP 0.4 ug/ml added, then purified C1q at 0, 0.2, 2.0 and 5.0 ug/ml, 1 h at room temperature; detected with anti-C1q
Details: both partners purified

T1 sequence (P02745 23-245, chain 1 of 3): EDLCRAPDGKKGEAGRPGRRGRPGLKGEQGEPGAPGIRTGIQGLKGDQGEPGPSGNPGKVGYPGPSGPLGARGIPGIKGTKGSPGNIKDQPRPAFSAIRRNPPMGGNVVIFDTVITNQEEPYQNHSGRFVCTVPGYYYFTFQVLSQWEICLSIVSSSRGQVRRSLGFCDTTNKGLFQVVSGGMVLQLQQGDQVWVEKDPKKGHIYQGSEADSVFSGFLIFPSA
T1 sequence (P02746 28-253, chain 2 of 3): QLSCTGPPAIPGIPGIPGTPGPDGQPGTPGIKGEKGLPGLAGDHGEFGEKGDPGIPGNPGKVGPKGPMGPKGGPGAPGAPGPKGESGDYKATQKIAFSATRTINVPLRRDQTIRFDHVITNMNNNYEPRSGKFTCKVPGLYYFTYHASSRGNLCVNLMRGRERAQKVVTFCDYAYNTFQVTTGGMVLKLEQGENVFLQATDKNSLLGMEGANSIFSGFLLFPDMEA
T1 sequence (P02747 29-245, chain 3 of 3): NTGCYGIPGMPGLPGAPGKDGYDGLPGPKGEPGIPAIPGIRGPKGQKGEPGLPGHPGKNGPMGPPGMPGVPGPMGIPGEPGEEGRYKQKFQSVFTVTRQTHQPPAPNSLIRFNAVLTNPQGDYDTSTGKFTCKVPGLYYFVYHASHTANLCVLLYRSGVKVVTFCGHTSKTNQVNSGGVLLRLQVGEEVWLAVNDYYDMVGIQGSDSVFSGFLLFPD

B1: C-reactive protein (native, human) (natural protein)
chain: QTDMSRKAFVFPKESDTSYVSLKAPLTKPLKAFTVCLHFYTELSSTRGYSIFSYATKRQDNEILIFWSKDIGYSFTVGGSEILFEVPEVTVAPVHICTSWESASGIVEFWVDGKPRVRKSLKKGYTVGAEASIILGQEQDSFGGNFEGSQSLVGDIGNVNMWDFVLSPDEINTIYLGGPFSPNVLNWRALKYEVQGEVFTKPQLWP
notes: C-reactive protein, human, native pentamer of subunits of ~25 kD; Used as purified protein, as purified protein added to diluted serum, and as the endogenous protein of normal human serum; also called CRP; native CRP; source: also endogenous, normal human serum
binding result: binds
